According to the supplement of paper PMC9112550, “Optimization of the antimicrobial peptide Bac7 by deep mutational scanning” (BMC Biology, 2022):
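Further: peptides expressed intracellularly from a pBAD plasmid library in pooled LB shake-flask culture, induced with 0.3% L-arabinose, DNA abundance read by NGS, three biological replicates, DESeq2 with apeglm shrinkage.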

Each sequence was assayed on Escherichia coli TOP10 (assay: shrunken log2 fold change of peptide-encoding DNA abundance (4.5 h post-induction vs induction); higher = less antimicrobial activity (less host growth inhibition)). Settings: time post-induction: 4.5 h; library: site-saturation at positions 5, 18, 19, 20.
With RRIRTRPPRLPRPRPRPNFGPRP the “shrunken log2 fold change” value was -0.0173.
With RRIRLRPPRLPRPRPRPDGRPRP the “shrunken log2 fold change” value was -0.00938.
RRIRPRPPRLPRPRPRPQRRPRP was tested, and the “shrunken log2 fold change” value was -0.359.
For RRIRIRPPRLPRPRPRPHNPPRP, the “shrunken log2 fold change” value was -1.23.
For RRIRYRPPRLPRPRPRPFLSPRP, the “shrunken log2 fold change” value was -0.0547.
For RRIRQRPPRLPRPRPRPGKYPRP, the “shrunken log2 fold change” value was -0.17.
In the case of RRIRARPPRLPRPRPRPAYRPRP, the “shrunken log2 fold change” value is reported as -0.086.
With RRIRYRPPRLPRPRPRPGTLPRP the “shrunken log2 fold change” value was -0.803.
For RRIRHRPPRLPRPRPRPFRCPRP, the “shrunken log2 fold change” value was -0.556.
With RRIRCRPPRLPRPRPRPVEAPRP the “shrunken log2 fold change” value was 0.338.
In the case of RRIRHRPPRLPRPRPRPKCPPRP, the “shrunken log2 fold change” value is reported as -0.0954.
With RRIRIRPPRLPRPRPRPDNKPRP the “shrunken log2 fold change” value was -0.703.
With RRIRWRPPRLPRPRPRPHCPPRP the “shrunken log2 fold change” value was -0.0401.
In the case of RRIRQRPPRLPRPRPRPRLCPRP, the “shrunken log2 fold change” value is reported as 0.423.
RRIRYRPPRLPRPRPRPPHSPRP was tested, and the “shrunken log2 fold change” value was -0.699.
For RRIRARPPRLPRPRPRPLFKPRP, the “shrunken log2 fold change” value was 0.117.
With RRIRWRPPRLPRPRPRPELMPRP the “shrunken log2 fold change” value was 0.0289.
For RRIRRRPPRLPRPRPRPCYAPRP, the “shrunken log2 fold change” value was 1.3.
With RRIRPRPPRLPRPRPRPYYMPRP the “shrunken log2 fold change” value was -0.864.
For RRIRARPPRLPRPRPRPIQVPRP, the “shrunken log2 fold change” value was -0.215.
For RRIRKRPPRLPRPRPRPMLFPRP, the “shrunken log2 fold change” value was 0.315.
With RRIRRRPPRLPRPRPRPDECPRP the “shrunken log2 fold change” value was 0.746.
In the case of RRIRYRPPRLPRPRPRPFVYPRP, the “shrunken log2 fold change” value is reported as -1.51.
In the case of RRIRKRPPRLPRPRPRPIQAPRP, the “shrunken log2 fold change” value is reported as -0.000921.
For RRIRNRPPRLPRPRPRPGFGPRP, the “shrunken log2 fold change” value was 0.25.
RRIRSRPPRLPRPRPRPHNLPRP was tested, and the “shrunken log2 fold change” value was -0.33.
RRIRHRPPRLPRPRPRPSNMPRP was tested, and the “shrunken log2 fold change” value was -1.48.
RRIRLRPPRLPRPRPRPMQMPRP was tested, and the “shrunken log2 fold change” value was -0.11.
For RRIRFRPPRLPRPRPRPEKWPRP, the “shrunken log2 fold change” value was 0.109.
For RRIRNRPPRLPRPRPRPGKAPRP, the “shrunken log2 fold change” value was -0.181.
For RRIRFRPPRLPRPRPRPVMFPRP, the “shrunken log2 fold change” value was -0.218.
In the case of RRIRWRPPRLPRPRPRPWPAPRP, the “shrunken log2 fold change” value is reported as 0.62.
With RRIRYRPPRLPRPRPRPQTNPRP the “shrunken log2 fold change” value was -0.711.
For RRIRVRPPRLPRPRPRPLADPRP, the “shrunken log2 fold change” value was 0.279.
In the case of RRIRHRPPRLPRPRPRPKMLPRP, the “shrunken log2 fold change” value is reported as -0.353.
For RRIRGRPPRLPRPRPRPGHIPRP, the “shrunken log2 fold change” value was 0.299.
RRIRVRPPRLPRPRPRPFWKPRP was tested, and the “shrunken log2 fold change” value was 0.0154.
In the case of RRIRQRPPRLPRPRPRPHSRPRP, the “shrunken log2 fold change” value is reported as -0.17.
For RRIRQRPPRLPRPRPRPSGRPRP, the “shrunken log2 fold change” value was 0.137.
In the case of RRIRIRPPRLPRPRPRPGHSPRP, the “shrunken log2 fold change” value is reported as 0.00697.
With RRIRTRPPRLPRPRPRPFACPRP the “shrunken log2 fold change” value was -0.198.
In the case of RRIRHRPPRLPRPRPRPRINPRP, the “shrunken log2 fold change” value is reported as -0.0802.
RRIRHRPPRLPRPRPRPKMMPRP was tested, and the “shrunken log2 fold change” value was 0.00455.
In the case of RRIRRRPPRLPRPRPRPPIAPRP, the “shrunken log2 fold change” value is reported as 0.385.
RRIRQRPPRLPRPRPRPTRSPRP was tested, and the “shrunken log2 fold change” value was 0.164.
RRIRIRPPRLPRPRPRPMNSPRP was tested, and the “shrunken log2 fold change” value was -0.191.
RRIRDRPPRLPRPRPRPITCPRP was tested, and the “shrunken log2 fold change” value was -0.403.
With RRIRIRPPRLPRPRPRPYHMPRP the “shrunken log2 fold change” value was -0.123.
In the case of RRIRNRPPRLPRPRPRPFKNPRP, the “shrunken log2 fold change” value is reported as 0.0633.
In the case of RRIRPRPPRLPRPRPRPVQPPRP, the “shrunken log2 fold change” value is reported as 0.000272.
In the case of RRIRFRPPRLPRPRPRPGMFPRP, the “shrunken log2 fold change” value is reported as 0.0382.
With RRIRSRPPRLPRPRPRPSWDPRP the “shrunken log2 fold change” value was 0.364.
In the case of RRIRSRPPRLPRPRPRPLVAPRP, the “shrunken log2 fold change” value is reported as 0.27.
With RRIRPRPPRLPRPRPRPLWKPRP the “shrunken log2 fold change” value was 0.0546.
For RRIRDRPPRLPRPRPRPDHKPRP, the “shrunken log2 fold change” value was -0.119.
RRIRMRPPRLPRPRPRPYVYPRP was tested, and the “shrunken log2 fold change” value was -0.175.
In the case of RRIRFRPPRLPRPRPRPPWPPRP, the “shrunken log2 fold change” value is reported as 0.564.
With RRIRPRPPRLPRPRPRPNMYPRP the “shrunken log2 fold change” value was -0.746.
In the case of RRIRFRPPRLPRPRPRPPFHPRP, the “shrunken log2 fold change” value is reported as -0.231.
For RRIRRRPPRLPRPRPRPMTQPRP, the “shrunken log2 fold change” value was 0.176.
RRIRPRPPRLPRPRPRPRWIPRP was tested, and the “shrunken log2 fold change” value was 0.157.
For RRIRYRPPRLPRPRPRPHTDPRP, the “shrunken log2 fold change” value was -0.368.
With RRIRPRPPRLPRPRPRPEYSPRP the “shrunken log2 fold change” value was -0.117.
RRIRHRPPRLPRPRPRPAVHPRP was tested, and the “shrunken log2 fold change” value was 0.0645.
For RRIRPRPPRLPRPRPRPMHFPRP, the “shrunken log2 fold change” value was 0.015.
In the case of RRIRQRPPRLPRPRPRPGPHPRP, the “shrunken log2 fold change” value is reported as 0.0856.
RRIRNRPPRLPRPRPRPNPVPRP was tested, and the “shrunken log2 fold change” value was -0.139.
With RRIRCRPPRLPRPRPRPPFEPRP the “shrunken log2 fold change” value was 0.136.
In the case of RRIRIRPPRLPRPRPRPHNEPRP, the “shrunken log2 fold change” value is reported as -1.35.
RRIRIRPPRLPRPRPRPQVFPRP was tested, and the “shrunken log2 fold change” value was -0.0107.
With RRIRCRPPRLPRPRPRPCPRPRP the “shrunken log2 fold change” value was 0.00856.
RRIRDRPPRLPRPRPRPARGPRP was tested, and the “shrunken log2 fold change” value was 0.793.
In the case of RRIRWRPPRLPRPRPRPHKAPRP, the “shrunken log2 fold change” value is reported as -0.000946.
RRIRLRPPRLPRPRPRPWDFPRP was tested, and the “shrunken log2 fold change” value was -0.00136.
RRIRIRPPRLPRPRPRPWRGPRP was tested, and the “shrunken log2 fold change” value was -0.129.
RRIRARPPRLPRPRPRPTKNPRP was tested, and the “shrunken log2 fold change” value was 0.429.
With RRIRPRPPRLPRPRPRPLHDPRP the “shrunken log2 fold change” value was -0.034.
For RRIRMRPPRLPRPRPRPMYHPRP, the “shrunken log2 fold change” value was -0.0178.
With RRIRLRPPRLPRPRPRPNGTPRP the “shrunken log2 fold change” value was -0.221.
For RRIRVRPPRLPRPRPRPQRCPRP, the “shrunken log2 fold change” value was 0.00942.
With RRIRDRPPRLPRPRPRPEHYPRP the “shrunken log2 fold change” value was -0.0548.
For RRIRFRPPRLPRPRPRPGLIPRP, the “shrunken log2 fold change” value was -0.0301.
With RRIRLRPPRLPRPRPRPAHEPRP the “shrunken log2 fold change” value was 0.408.
With RRIRVRPPRLPRPRPRPIRGPRP the “shrunken log2 fold change” value was 0.0551.
For RRIRVRPPRLPRPRPRPQNSPRP, the “shrunken log2 fold change” value was -0.802.
With RRIRARPPRLPRPRPRPCQMPRP the “shrunken log2 fold change” value was -0.0341.
RRIRTRPPRLPRPRPRPIFFPRP was tested, and the “shrunken log2 fold change” value was 0.0107.
In the case of RRIRRRPPRLPRPRPRPWSYPRP, the “shrunken log2 fold change” value is reported as -0.573.
For RRIRSRPPRLPRPRPRPFPYPRP, the “shrunken log2 fold change” value was -0.115.
With RRIRCRPPRLPRPRPRPYEWPRP the “shrunken log2 fold change” value was -0.0207.
With RRIRKRPPRLPRPRPRPDKEPRP the “shrunken log2 fold change” value was -0.2.
For RRIRCRPPRLPRPRPRPRVRPRP, the “shrunken log2 fold change” value was 0.197.
RRIRARPPRLPRPRPRPFKHPRP was tested, and the “shrunken log2 fold change” value was -0.27.
RRIRYRPPRLPRPRPRPNGIPRP was tested, and the “shrunken log2 fold change” value was -0.02.
RRIRERPPRLPRPRPRPWKNPRP was tested, and the “shrunken log2 fold change” value was -0.0553.
RRIRYRPPRLPRPRPRPAPHPRP was tested, and the “shrunken log2 fold change” value was -0.247.
RRIRRRPPRLPRPRPRPTACPRP was tested, and the “shrunken log2 fold change” value was 0.636.
With RRIRCRPPRLPRPRPRPMAPPRP the “shrunken log2 fold change” value was 0.219.
RRIRKRPPRLPRPRPRPRQFPRP was tested, and the “shrunken log2 fold change” value was 0.192.
For RRIRPRPPRLPRPRPRPKTCPRP, the “shrunken log2 fold change” value was -0.124.
For RRIRARPPRLPRPRPRPMFWPRP, the “shrunken log2 fold change” value was 0.19.
In the case of RRIRRRPPRLPRPRPRPSKEPRP, the “shrunken log2 fold change” value is reported as 0.137.
In the case of RRIRHRPPRLPRPRPRPVAAPRP, the “shrunken log2 fold change” value is reported as 0.202.
In the case of RRIRFRPPRLPRPRPRPRIPPRP, the “shrunken log2 fold change” value is reported as -0.0955.
RRIRERPPRLPRPRPRPCWSPRP was tested, and the “shrunken log2 fold change” value was 0.0767.
In the case of RRIRHRPPRLPRPRPRPGCAPRP, the “shrunken log2 fold change” value is reported as 0.124.
In the case of RRIRLRPPRLPRPRPRPWYIPRP, the “shrunken log2 fold change” value is reported as -0.137.
With RRIRCRPPRLPRPRPRPPCDPRP the “shrunken log2 fold change” value was 0.242.
With RRIRMRPPRLPRPRPRPTWEPRP the “shrunken log2 fold change” value was 0.312.
For RRIRTRPPRLPRPRPRPQLGPRP, the “shrunken log2 fold change” value was -0.0516.
In the case of RRIRQRPPRLPRPRPRPHWIPRP, the “shrunken log2 fold change” value is reported as -0.452.
In the case of RRIRGRPPRLPRPRPRPAQKPRP, the “shrunken log2 fold change” value is reported as 0.721.
In the case of RRIRDRPPRLPRPRPRPEQYPRP, the “shrunken log2 fold change” value is reported as 0.215.
With RRIRLRPPRLPRPRPRPTKTPRP the “shrunken log2 fold change” value was -0.0526.
In the case of RRIRARPPRLPRPRPRPQPQPRP, the “shrunken log2 fold change” value is reported as 0.436.
RRIRMRPPRLPRPRPRPPSCPRP was tested, and the “shrunken log2 fold change” value was 0.932.
RRIRSRPPRLPRPRPRPSRCPRP was tested, and the “shrunken log2 fold change” value was -0.134.
With RRIRMRPPRLPRPRPRPNEGPRP the “shrunken log2 fold change” value was 0.137.
With RRIRWRPPRLPRPRPRPWSHPRP the “shrunken log2 fold change” value was -0.00467.
For RRIRSRPPRLPRPRPRPTYWPRP, the “shrunken log2 fold change” value was -0.123.
For RRIRERPPRLPRPRPRPELRPRP, the “shrunken log2 fold change” value was 0.0526.
For RRIRQRPPRLPRPRPRPTQWPRP, the “shrunken log2 fold change” value was 0.571.
RRIRGRPPRLPRPRPRPLLVPRP was tested, and the “shrunken log2 fold change” value was 0.781.
For RRIRSRPPRLPRPRPRPNYPPRP, the “shrunken log2 fold change” value was -0.195.
For RRIRRRPPRLPRPRPRPTIEPRP, the “shrunken log2 fold change” value was 0.212.
